{"source": "paper PMC11369598", "parents": {"B1": {"name": "KLHL6 wild type fused to C-terminal BioID2 [human] / LuZP1 [human (endogenous in SuDHL5 and U2932)] (parent)", "chain 1": "MLMAGQRGAWTMGDVVEKSLEGPLAPSTDEPSQKTGDLVEILNGEKVKFDDAGLSLILQNGLETLRMENALTDVILCVDIQEFSCHRVVLAAASNYFRAMFCNDLKEKYEKRIIIKGVDAETMHTLLDYTYTSKALITKQNVQRVLEAANLFQFLRMVDACASFLTEALNPENCVGILRLADTHSLDSLKKQVQSYIIQNFVQILNSEEFLDLPVDTLHHILKSDDLYVTEEAQVFETVMSWVRHKPSERLCLLPYVLENVRLPLLDPWYFVETVEADPLIRQCPEVFPLLQEARMYHLSGNEIISERTKPRMHEFQSEVFMIIGGCTKDERFVAEVTCLDPLRRSRLEVAKLPLTEHELESENKKWVEFACVTLKNEVYISGGKETQHDVWKYNSSINKWIQIEYLNIGRWRHKMVVLGGKVYVIGGFDGLQRINNVETYDPFHNCWSEAAPLLVHVSSFAATSHKKKLYVIGGGPNGKLATDKTQCYDPSTNKWSLKAAMPVEAKCINAVSFRDRIYVVGGAMRALYAYSPLEDSWCLVTQLSHERASCGIAPCNNRLYITGGRDEKNEVIATVLCWDPEAQKLTEECVLPRGVSHHGSVTIRKSYTHIRRIVPGAVSV", "chain 2": "MAEFTSYKETASSRHLRFKLQSLSRRLDELEEATKNLQKAEDELLDLQDKVIQAEGSNSSMLAEIEVLRQRVLRIEGKDEEIKRAEDLCRLMKEKLEEEENLTRELKSEIERLQKRMAELEKLEEAFSRSKNDCTQLCLSLNEERNLTKKISSELEMLRVKVKELESSEDRLDKTEQSLASELEKLKSLTLSFVSERKYLNEKEKENEKLIKELTQKLEQNKKMNRDYTRNASNLERNDLRIEDGISSTLPSKESRRKGGLDYLKQVENETRNKSENEKNRNQEDNKVKDLNQEIEKLKTQIKHFESLEEELKKMKSKNNDLQDNYLSEQNKNKLLASQLEEIKLQIKKQKELENGEVEGEDAFLSSKGRHERTKFRGHGSEASVSKHTARELSPQHKRERLRNREFALNNENYSLSNRQVSSPSFTNRRAAKASHMGVSTDSGTQETKKTEDRFVPGSSQSEGKKSREQPSVLSRYPPAAQEHSKAWKGTSKPGTESGLKGKVEKTTRTFSDTTHGSVPSDPLGRADKASDTSSETVFGKRGHVLGNGSQVTQAANSGCSKAIGALASSRRSSSEGLSKGKKAANGLEADNSCPNSKAPVLSKYPYSCRSQENILQGFSTSHKEGVNQPAAVVMEDSSPHEALRCRVIKSSGREKPDSDDDLDIASLVTAKLVNTTITPEPEPKPQPNSREKAKTRGAPRTSLFENDKDAGMENESVKSVRASTNTMELPDTNGAGVKSQRPFSPREALRSRAIIKPVIVDKDVKKIMGGSGTETTLEKQKPVSKPGPNKVTSSITIYPSDSSSPRAAPGEALRERHTSTSNIQVGLAELTSVSNHVSSPFELSIHKHDITLQLAEAERMADGPLKDRPETVVSRSSIIIKPSDPVERNSHAPPAETIRWKSHSAPSEVGFSDARHVTVRNAWKSRRDLKSLEDPPTRIGKNVESTNSNAYTQRSSTDFSELEQPRSCLFEQGTRRVGPSSGDAPEPSSRRTQSSLTVSEVLTRRNRVGDTITVAAWNHSASMEEEGEDCTLSVYRQLHNSLDPSELPGKQGLPESGRVRAEERLRPTRPCAEEN"}, "B2": {"name": "KLHL6 wild type, C-terminal Strep-HA tag (KLHL6-strHA) [human] / KLHL26 [human (endogenous in SuDHL5)] (parent)", "chain 1": "B1 chain 1", "chain 2": "MAESGGSSGGAGGGGAFGAGPGPERPNSTADKNGALKCTFSAPSHSTSLLQGLATLRAQGQLLDVVLTINREAFPAHKVVLAACSDYFRAMFTGGMREASQDVIELKGVSARGLRHIIDFAYSAEVTLDLDCVQDVLGAAVFLQMLPVVELCEEFLKAAMSVETCLNIGQMATTFSLASLRESVDAFTFRHFLQIAEEEDFLRLPLERLVFFLQSNRLQSCAEIDLFRAAVRWLQHDPARRPRASHVLCHIRFPLMQSSELVDSVQTLDIMVEDVLCRQYLLEAFNYQVLPFRQHEMQSPRTAVRSDVPSLVTFGGTPYTDSDRSVSSKVYQLPEPGARHFRELTEMEVGCSHTCVAVLDNFVYVAGGQHLQYRSGEGAVDACYRYDPHLNRWLRLQAMQESRIQFQLNVLCGMVYATGGRNRAGSLASVERYCPRRNEWGYACSLKRRTWGHAGAASGGRLYISGGYGISVEDKKALHCYDPVADQWEFKAPMSEPRVLHAMVGAGGRIYALGGRMDHVDRCFDVLAVEYYVPETDQWTSVSPMRAGQSEAGCCLLERKIYIVGGYNWRLNNVTGIVQVYNTDTDEWERDLHFPESFAGIACAPVLLPRAGTRR"}, "B3": {"name": "KLHL6 wild type, C-terminal Strep-HA tag (KLHL6-strHA) [human] / adapter protein BANK1 [human (endogenous in SuDHL5 and U2932)] (parent)", "chain 1": "B1 chain 1", "chain 2": "MLPAAPGKGLGSPDPAPCGPAPPGNTKDIIMIYEEDAEEWALYLTEVFLHVVKREAILLYRLENFSFRHLELLNLTSYKCKLLILSNSLLRDLTPKKCQFLEKILHSPKSVVTLLCGVKSSDQLYELLNISQSRWEISTEQEPEDYISVIQSIIFKDSEDYFEVNIPTDLRAKHSGEISERKEIEELSEASRNTIPLAVVLPTEIPCENPGEIFIILRDEVIGDTVEVEFTSSNKRIRTRPALWNKKVWCMKALEFPAGSVHVNVYCDGIVKATTKIKYYPTAKAKECLFRMADSGESLCQNSIEELDGVLTSIFKHEIPYYEFQSLQTEICSQNKYTHFKELPTLLHCAAKFGLKNLAIHLLQCSGATWASKMKNMEGSDPAHIAERHGHKELKKIFEDFSIQEIDINNEQENDYEEDIASFSTYIPSTQNPAFHHESRKTYGQSADGAEANEMEGEGKQNGSGMETKHSPLEVGSESSEDQYDDLYVFIPGADPENNSQEPLMSSRPPLPPPRPVANAFQLERPHFTLPGTMVEGQMERSQNWGHPGVRQETGDEPKGEKEKKEEEKEQEEEEDPYTFAEIDDSEYDMILANLSIKKKTGSRSFIINRPPAPTPRPTSIPPKEETTPYIAQVFQQKTARRQSDDDKFCGLPKKQDRARIESPAFSTLRGCLTDGQEELILLQEKVKNGKMSMDEALEKFKHWQMGKSGLEMIQQEKLRQLRDCIIGKRPEEENVYNKLTIVHHPGGKETAHNENKFYNVHFSNKLPARPQVEKEFGFCCKKDH"}, "B4": {"name": "KLHL6 wild type, C-terminal Strep-HA tag (KLHL6-strHA) [human] / KLHL7 [human (endogenous in SuDHL5)] (parent)", "chain 1": "B1 chain 1", "chain 2": "MAASGVEKSSKKKTEKKLAAREEAKLLAGFMGVMNNMRKQKTLCDVILMVQERKIPAHRVVLAAASHFFNLMFTTNMLESKSFEVELKDAEPDIIEQLVEFAYTARISVNSNNVQSLLDAANQYQIEPVKKMCVDFLKEQVDASNCLGISVLAECLDCPELKATADDFIHQHFTEVYKTDEFLQLDVKRVTHLLNQDTLTVRAEDQVYDAAVRWLKYDEPNRQPFMVDILAKVRFPLISKNFLSKTVQAEPLIQDNPECLKMVISGMRYHLLSPEDREELVDGTRPRRKKHDYRIALFGGSQPQSCRYFNPKDYSWTDIRCPFEKRRDAACVFWDNVVYILGGSQLFPIKRMDCYNVVKDSWYSKLGPPTPRDSLAACAAEGKIYTSGGSEVGNSALYLFECYDTRTESWHTKPSMLTQRCSHGMVEANGLIYVCGGSLGNNVSGRVLNSCEVYDPATETWTELCPMIEARKNHGLVFVKDKIFAVGGQNGLGGLDNVEYYDIKLNEWKMVSPMPWKGVTVKCAAVGSIVYVLAGFQGVGRLGHILEYNTETDKWVANSKVRAFPVTSCLICVVDTCGANEETLET"}, "B5": {"name": "KLHL6 wild type, C-terminal Strep-HA tag (KLHL6-strHA) [human] / endogenous KLHL6 [human (endogenous in SuDHL5 and SuDHL4)] (parent)", "chain 1": "B1 chain 1", "chain 2": "B1 chain 1"}}, "data": [{"variants_of": "B1", "test": "BioID2 proximity labelling, mass spectrometry (spectral counts)", "details": "with LuZP1 [human (endogenous in SuDHL5 and U2932)]; SuDHL5 cells; read off a plot", "values": [{"variant": "chain 1 E547K", "response (spectral counts)": 1.5}, {"variant": "chain 1 L65P", "response (spectral counts)": 13}, {"variant": "chain 1 E568K", "response (spectral counts)": 1.5}]}, {"variants_of": "B1", "test": "BioID2 proximity labelling, mass spectrometry", "details": "with LuZP1 [human (endogenous in SuDHL5 and U2932)]; SuDHL5 cells; read off a plot", "units": {"screen value": "log2"}, "values": [{"variant": "chain 1 E568K", "screen value": 2.4}]}, {"variants_of": "B2", "test": "AP-MS (Strep affinity purification, spectral counts)", "details": "with KLHL26 [human (endogenous in SuDHL5)]; SuDHL5 cells; read off a plot", "values": [{"variant": "chain 1 L90F", "response (spectral counts)": 0.5}, {"variant": "chain 1 E568K", "response (spectral counts)": 15}, {"variant": "chain 1 L65P", "response (spectral counts)": 0}]}, {"variants_of": "B2", "test": "AP-MS (Strep affinity purification, mass spectrometry; DESeq2 model)", "details": "with KLHL26 [human (endogenous in SuDHL5)]; SuDHL5 cells; WT eight replicates, L90F eight replicates; read off a plot", "units": {"screen value": "log2"}, "values": [{"variant": "chain 1 L90F", "screen value": 2.7}]}, {"variants_of": "B2", "test": "AP-MS (Strep affinity purification, mass spectrometry; DESeq2 model)", "details": "with KLHL26 [human (endogenous in SuDHL5)]; SuDHL5 cells; WT eight replicates, L65P four replicates; read off a plot", "units": {"screen value": "log2"}, "values": [{"variant": "chain 1 L65P", "screen value": 4.4}]}, {"variants_of": "B3", "test": "AP-MS (Strep affinity purification, spectral counts)", "details": "with adapter protein BANK1 [human (endogenous in SuDHL5 and U2932)]; SuDHL5 cells; read off a plot", "values": [{"variant": "chain 1 E568K", "response (spectral counts)": 2}, {"variant": "chain 1 L90F", "response (spectral counts)": 7.5}, {"variant": "chain 1 L65P", "response (spectral counts)": 0.5}]}, {"variants_of": "B4", "test": "AP-MS (Strep affinity purification, spectral counts)", "details": "with KLHL7 [human (endogenous in SuDHL5)]; SuDHL5 cells; read off a plot", "values": [{"variant": "chain 1 L90F", "response (spectral counts)": 0}, {"variant": "chain 1 E568K", "response (spectral counts)": 20}, {"variant": "chain 1 L65P", "response (spectral counts)": 0}]}, {"variants_of": "B4", "test": "AP-MS (Strep affinity purification, mass spectrometry; DESeq2 model)", "details": "with KLHL7 [human (endogenous in SuDHL5)]; SuDHL5 cells; WT eight replicates, L90F eight replicates; read off a plot", "units": {"screen value": "log2"}, "values": [{"variant": "chain 1 L90F", "screen value": 4.9}]}, {"variants_of": "B4", "test": "AP-MS (Strep affinity purification, mass spectrometry; DESeq2 model)", "details": "with KLHL7 [human (endogenous in SuDHL5)]; SuDHL5 cells; WT eight replicates, L65P four replicates; read off a plot", "units": {"screen value": "log2"}, "values": [{"variant": "chain 1 L65P", "screen value": 4.9}]}, {"variants_of": "B5", "test": "AP-MS (spectral counts of the WT, leucine-65 peptide in the L65P bait pull-down)", "details": "with endogenous KLHL6 [human (endogenous in SuDHL5 and SuDHL4)]; SuDHL5 cells; read off a plot", "values": [{"variant": "chain 1 L65P", "response (spectral counts)": 5}]}, {"variants_of": "B5", "test": "AP-MS (spectral counts of the WT, leucine-90 peptide in the L90F bait pull-down)", "details": "with endogenous KLHL6 [human (endogenous in SuDHL5 and SuDHL4)]; SuDHL5 cells; read off a plot", "values": [{"variant": "chain 1 L90F", "response (spectral counts)": 1}]}]}
